The record followed here is patent US20220136009, “COMPOSITIONS AND METHODS FOR SELECTIVE GENE REGULATION” (Encoded Therapeutics, Inc., published 2022).

Common to all, as to settings: tags: NLS, HA tag
Data set [1] deals with Construct 29 eTF (eZF z14-VP64) (synthetic construct). Put plainly: cell_activity; endogenous SCN1A mRNA in HEK293 vs EGFP-KASH; p=0.164. As to the method:
(§1) HEK293 cells were cultured per standard methods, and transfected (FugeneHD, Promega) with 3 ug plasmid carrying an engineered transcription factor or control construct per well of a 6-well plate. 48h following transfection, cells were collected and RNA was isolated (Qiagen RNeasy Mini kit), and DNase treated. RNA (3 ug) was reverse transcribed using OligoDT primers (Superscript IV, Invitrogen). cDNA samples were analyzed by qPCR using Phusion Polymerase (New England Biolabs) and SYBR Green I: (30s at 98° C., 40×[10 sec at 98° C., 15 sec at 66° C., 15 sec at 72° C.]). Primers against SCN1A (5′-[…]-3′ (SEQ ID NO: 185); 5′-[…]-3′ (SEQ ID NO: 186)) were used to quantify levels of endogenous SCN1A transcript, and relative levels of SCN1A expression were determined by the delta-delta Ct method with GAPDH as a reference gene (5′-[…]′-3′ (SEQ ID NO: 187); 5′-[…]-3′ (SEQ ID NO: 188)). Data are presented as fold changes relative to the control condition.

The target of data set [2] is Construct 4 eTF (eZF z1-VP64) (synthetic construct). Put plainly: cell_activity; endogenous SCN1A mRNA in HEK293 vs EGFP-KASH; p=0.0097; also about 20-30% Scn1a upregulation in mouse hippocampus. As to the method: as §1
Data set [3] concerns the target Construct 3 eTF (eZF z13-VP64) (synthetic construct). The experiment in a line: cell_activity; endogenous SCN1A mRNA in HEK293 vs EGFP-KASH; p=0.149. As to the method: as §1
For data set [4], the target named is Construct 30 eTF (eZF z13-VPR) (synthetic construct). Put plainly: cell_activity; SCN1A mRNA by RNAseq in iCell GABA neurons vs CBA-EGFP; SCN1A-selective among 40 neighbouring genes. The method, then:
iCell GABA neurons (Cellular Dynamics) were plated in a 6-well plate (˜1E6 cells/well) and maintained per manufacturer's recommended protocol. 72h following plating, recombinant AAV (serotype AAV-DJ) expressing EGFP or activator (Construct 30), which comprises a zinc finger DBD fused to a VPR TAD driven by a CBA promoter) under the control of a CBA promoter was added to the culture media at approximately 2E11 genome copies/well.
One week following infection, RNA was isolated from cultured cells (Qiagen RNeasy Mini kit), and DNase treated. RNAseq libraries were prepared from the recovered RNA, using the TruSeq Stranded mRNA library kit (Illumina) and sequenced on an Illumina NextSeq (2×75 cycle paired end sequencing). Sequencing reads were aligned to human genome (RNASTAR) and differential expression analysis was performed with DESeq2. Data are presented as fold change with respect to control (AAVDJ-CBA-EGFP) samples (see FIG. 4). Results are shown in TABLE 14 and FIG. 4 illustrates the relative expression of endogenous SCN1A and the 40 nearest neighboring gene transcripts presented as fold changes relative to the control condition. Construct 30, as described in TABLE 1, was able to specifically increase expression of the SCN1A gene, or the Nav1.1 protein, as compared to the other genes examined. […]

Construct 30 eTF (eZF z13-VPR) (synthetic construct), sequence (chain, as listed by the source): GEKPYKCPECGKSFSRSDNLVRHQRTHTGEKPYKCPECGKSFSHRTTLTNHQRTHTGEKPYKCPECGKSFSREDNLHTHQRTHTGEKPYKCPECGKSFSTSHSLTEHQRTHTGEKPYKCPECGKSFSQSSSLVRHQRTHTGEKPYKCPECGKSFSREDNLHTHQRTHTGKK

B1: z14 target site (dsDNA)
DNA 1: GAGGATACTGCAGAGGTC
DNA 2: GACCTCTGCAGTATCCTC
B1: in data set [1], the activity was 8.68 fold.

B2: z1 target site (dsDNA)
DNA 1: CTAGGTCAAGTGTAGGAG
DNA 2: CTCCTACACTTGACCTAG
Regarding B2, the activity in data set [2] was 5.12 fold.

B3: z13 target site (dsDNA)
DNA 1: TAGGTACCATAGAGTGAG
DNA 2: CTCACTCTATGGTACCTA
As to B3, the activity in data set [3] amounted to 25.5 fold; in data set [4], 63 fold.
